Key:
[1] = biological target: T2Q A34F variant of GB1; assay: NMR titration; 19F NMR of 3-fluorotyrosine-labelled A34F, serial dilution 500 to 15.6 uM; dimer to monomers; 20 mM phosphate pH 7.0, 10% D2O, 298 K; with 100 g/L mucin (porcine stomach) as crowder
[2] = biological target: T2Q A34F variant of GB1; assay: NMR titration; 19F NMR of 3-fluorotyrosine-labelled A34F, serial dilution 500 to 15.6 uM; dimer to monomers; 20 mM phosphate pH 7.0, 10% D2O, 298 K; with ficoll (70 kDa) as crowder
[3] = biological target: T2Q A34F variant of GB1; assay: NMR titration; 19F NMR of 3-fluorotyrosine-labelled A34F, serial dilution 500 to 15.6 uM, Y33 monomer and dimer peak integrals; dimer to monomers; 20 mM phosphate pH 7.0, 10% D2O, 298 K; buffer alone
[4] = biological target: T2Q A34F variant of GB1; assay: NMR titration; 19F NMR of 3-fluorotyrosine-labelled A34F, serial dilution 500 to 15.6 uM; dimer to monomers; 20 mM phosphate pH 7.0, 10% D2O, 298 K; with 100 g/L heparin (15 kDa) as crowder
[5] = biological target: T2Q A34F variant of GB1; assay: NMR titration; 19F NMR of 3-fluorotyrosine-labelled A34F, serial dilution 500 to 15.6 uM; dimer to monomers; 20 mM phosphate pH 7.0, 10% D2O, 298 K; with hyaluronic acid (50 kDa) as crowder

Substance “T2Q A34F variant of GB1 (domain or fragment)” has a Kd [1] of 26 µM, a Kd [2] of 42 µM and a Kd [3] of 57 µM. The stoichiometry N [3] was 2, the Kd [4] was 12 µM and the Kd [5] was 8 µM.

Source: publication PMC12720779
